The values below come from patent publication US20090325867A1, “RECEPTOR-SPECIFIC TUMOUR NECROSIS FACTOR-RELATED APOPTOSIS-INDUCING LIGAND (TRAIL) VARIANTS” (MEDICAL RESEARCH COUNCIL, priority 2005, published 2009).

Common to all, as to assay type: cell-based
One assay deals with T1, TRAIL-R1 (DR4) (Homo sapiens, UniProt O00220).
T1 construct: Ramos and Jurkat cells, which signal predominantly through TRAIL-R1 and TRAIL-R2, respectively; endogenous in cells; host or cells: Ramos cells (Jurkat cells as TRAIL-R2 comparison)
The experiment in a line: TRAIL-R1 selective apoptotic signalling (Ramos versus Jurkat cells). The conditions noted are these: from apoptosis in Ramos (TRAIL-R1) and Jurkat (TRAIL-R2) cells. An excerpt:
Another test involves the assay of the effect in R1- (DR4-) only cells. This is the preferred test for DR4 selectivity as discussed herein. Preferably the ligand is applied to an R1-only signalling cell. Preferably the cell is a Ramos cell. Preferably the read-out is functional activity, preferably death-inducing activity (apoptosis). This is crucial to the test—mere binding is not as robust an indicator as functional induction of death. Thus, preferably a DR4 selective ligand according to the present invention induces death in a DR4 only signalling cell, such as a Ramos cell.
(§1) Ramos, an Epstein-Barr virus-negative Burkitt's lymphoma cell line, and Jurkat T cells (clone E6-1) were cultured as described (MacFarlane et al (2005 Cell Death and Differentiation vol 12 pages 773-782)). Blood samples were obtained from CLL patients, with patient consent and local ethical committee approval and CLL cells purified as described (MacFarlane et al (2002 Oncogene 21, 6809-6818). Cells were incubated for 16 h with depsipeptide (10 nM), provided by Dr. E. Sausville (NCI, USA). Cells were then cultured for a further 6 h with either HGSETR1 or HGS-ETR2, agonistic mAbs to TRAIL-R1 or -R2, respectively (Human Genome Sciences, Rockville, Md.), His-TRAIL-LE (a recombinant TRAIL with low endotoxin—Alexis Corporation, Nottingham, UK), His-TRAIL, a similar form of human recombinant TRAIL (MacFarlane et al (1997 J Biol Chem 272, 25417-25420)) but not further purified to reduce endotoxin levels or a mutant form of His-TRAIL as described (MacFarlane et al., 2005 ibid.). Cell lines were also pre-incubated for 30 min with a TRAIL-R1 blocking Ab and a TRAIL-R2 neutralizing Ab from Alexis and R&D systems, respectively, prior to exposure to TRAIL. Freshly isolated cells from patients with MCL were isolated, purified and incubated with different forms of TRAIL as described above for CLL cells. Samples were either analyzed immediately for apoptosis or stored at −80° C. for subsequent Western blotting. Other methods and reagents were as described (Inoue (2004 Cell Death Differ 11 Suppl 2, S193-206); MacFarlane et al., 2005 ibid).
(§2) Apoptosis was quantified by phosphatidylserine (PS) externalization in the presence of propidium iodide as described (MacFarlane et al., 2002 ibid.). Samples for Western blot analysis were prepared and caspase processing detected as described (Inoue et al., 2004 ibid.; MacFarlane et al., 2005 ibid.).
Referring to FIG. 4: Ramos cells (A) and Jurkat cells (B) were cultured with increasing concentrations of Arg191Leu or Asn199Val single mutants of His-TRAIL ([…]) or His-TRAIL (500 ng/ml), ETR1 or ETR2 (1000 ng/ml) for 4 h. Apoptosis was quantified by measuring the % PS+ cells and results shown in FIG. 4 are the Mean±SEM of three independent experiments. Thus the biological importance TRAIL residues R191 and N199 in TRAIL-R1 selectivity is shown.

A further assay relates to Ramos cells. The experiment in a line: Apoptosis by phosphatidylserine (PS) externalization in Ramos cells. The conditions noted are these: for % PS+ cells, Ramos: 4 h exposure, 500 ng ml^−, Mean ± SEM of at least three determinations; for ability to induce apoptosis in Ramos cells (in words): PS externalization, compared with wt TRAIL. As for the experimental part:
(§3) Cells were also exposed to HGS-ETR1 or HGSETR2 (1 μg ml^−1). C: Ramos or Jurkat cells were pre-incubated for 30 min either alone or with TRAIL-R1 blocking Ab or TRAIL-R2 neutralizing Ab (5 μg ml^−1). […] D: Ramos and Jurkat cells were exposed to wt TRAIL or TRAIL mutants as described above and processing of caspase-3 and -8 determined by Western blot analysis. The asterisk indicates a non-specific band. The lower panel of the blot for detection of the caspase-8 p18 subunit was exposed for twice as long as the upper panel. Apoptosis was assessed by phosphatidylserine externalization and results expressed as the Means±SEM of at least 3 separate determinations.
as §1, §2
Ramos and Jurkat T cells (clone E6-1) were cultured as described (MacFarlane et al, 2005 ibid.). The breast tumour cell line, MCF-7 (clone F43) was cultured as described previously (MacFarlane et al., 2000 J. Cell Biol. 148, 1239-1254). Cells were cultured for either 4 h (Ramos and Jurkat) or 6 h (MCF-7) with His-TRAIL (MacFarlane et al, 1997 J Biol Chem 272, 25417-25420), HGS-ETR1 or HGS-ETR2 (Human Genome Sciences), or a mutant form of His-TRAIL (MacFarlane et al, 2005 ibid.). Samples were analyzed for apoptosis, Western blotting, or TRAIL DISC activation as described (MacFarlane et al, 2005 ibid.; MacFarlane et al. 2002 Oncogene 21, 6809-6818). Mutants of His-TRAIL (residues 95-281) were generated using the Quik-Change site-directed mutagenesis kit (Stratagene, Calif.), confirmed by DNA sequencing, expressed in E. coli and purified as described (MacFarlane et al, 1997 ibid.). For siRNA targeting of TRAIL-R1/-R2, MCF-7 cells were seeded into six-well plates immediately prior to effectene-mediated RNAi transfection with either a negative control siRNA (30 nM, Ambion, #4611), or preannealed siRNA oligonucleotides for TRAIL-R1 or TRAIL-R2 (30 nM, Ambion), with the sequence and validity described (Ren et al, 2004 Mol. Biol. Cell vol 15 pp 5064-5074). After 40 h of transfection the cells were collected and total TRAIL-R1 or TRAIL-R2 levels assessed. […]

A further assay concerns Jurkat cells. The experiment in a line: Apoptosis by phosphatidylserine (PS) externalization in Jurkat cells. The settings on record: for % PS+ cells, Jurkat: 4 h exposure, 500 ng ml^−, Mean ± SEM of at least three determinations; for ability to induce apoptosis in Jurkat cells (in words): PS externalization, compared with wt TRAIL. The protocol: as §3, with “determinations. […]” for “determinations.”
as §2
Ramos and Jurkat T cells (clone E6-1) were cultured as described (MacFarlane et al, 2005 ibid.). The breast tumour cell line, MCF-7 (clone F43) was cultured as described previously (MacFarlane et al., 2000 J. Cell Biol. 148, 1239-1254). Cells were cultured for either 4 h (Ramos and Jurkat) or 6 h (MCF-7) with His-TRAIL (MacFarlane et al, 1997 J Biol Chem 272, 25417-25420), HGS-ETR1 or HGS-ETR2 (Human Genome Sciences), or a mutant form of His-TRAIL (MacFarlane et al, 2005 ibid.). Samples were analyzed for apoptosis, Western blotting, or TRAIL DISC activation as described (MacFarlane et al, 2005 ibid.; MacFarlane et al. 2002 Oncogene 21, 6809-6818). Mutants of His-TRAIL (residues 95-281) were generated using the Quik-Change site-directed mutagenesis kit (Stratagene, Calif.), confirmed by DNA sequencing, expressed in E. coli and purified as described (MacFarlane et al, 1997 ibid.). For siRNA targeting of TRAIL-R1/-R2, MCF-7 cells were seeded into six-well plates immediately prior to effectene-mediated RNAi transfection with either a negative control siRNA (30 nM, Ambion, #4611), or preannealed siRNA oligonucleotides for TRAIL-R1 or TRAIL-R2 (30 nM, Ambion), with the sequence and validity described (Ren et al, 2004 Mol. Biol. Cell vol 15 pp 5064-5074). After 40 h of transfection the cells were collected and total TRAIL-R1 or TRAIL-R2 levels assessed. Where indicated, RNAi transfected MCF-7 cells were either left untreated or exposed to wt-TRAIL and apoptosis assessed by the extent of Bax activation, determined using the conformation specific Bax MAb, clone 3 (Dewson et al, 2003 Oncogene vol 22 pp 2643-54).

Entries after “also recorded” stand apart in the source; their conditions may differ.

B1: TRAIL.R1-4: 6His TRAIL 95-281 with 199Val, 201Arg, 213Trp and 215Asp (protein)
chain: TSEETISTVQEKQQNISPLVRERGPQRVAAHITGTRGRSNTLSSPNSKNEKALGRKINSWESSRSGHSFLSNLHLRNGELVIHEKGFYYIYSQTYFRFQEEIKEVTRNDKQMVQYIYKWTDYPDPILLMKSARNSCWSKDAEYGLYSIYQGGIFELKENDRIFVSVTNEHLIDMDHEASFFGAFLVG
Take B1: in the assay with TRAIL-R1 (DR4), the “receptor selectivity of apoptotic activity (in words)” value (shortened to “receptor selectivity”) is “good R1 selective activity; also recorded: a degree of selectivity for TRAIL-R1”. In addition, in the assay on Ramos cells, the “% PS+ cells, Ramos” value stood at 43.5 ± 2.5% and the “ability to induce apoptosis in Ramos cells (in words)” value (from here on “ability … in Ramos cells (in words)”) is “retained the activity of wt TRAIL”. In the assay with Jurkat cells, the “% PS+ cells, Jurkat” value came out at 25.0 ± 2.6% and the “ability to induce apoptosis in Jurkat cells (in words)” value (“ability … in Jurkat cells (in words)” for short) is listed as “decreased activity; also recorded: lost some activity”.

B2: TRAIL.R1-5a: His-TRAIL (95-281) with 189Ala, 199Val, 201Arg, 213Trp, 215Asp (protein)
chain: TSEETISTVQEKQQNISPLVRERGPQRVAAHITGTRGRSNTLSSPNSKNEKALGRKINSWESSRSGHSFLSNLHLRNGELVIHEKGFYYIYSQTAFRFQEEIKEVTRNDKQMVQYIYKWTDYPDPILLMKSARNSCWSKDAEYGLYSIYQGGIFELKENDRIFVSVTNEHLIDMDHEASFFGAFLVG
As for B2, in the assay with Ramos cells, the “% PS+ cells, Ramos” value is recorded as 18.9 ± 0.7% and the “ability … in Ramos cells (in words)” value is on record as “markedly diminished activity”. Further, in the assay on Jurkat cells, the “% PS+ cells, Jurkat” value was 6.6 ± 0.4% and the “ability … in Jurkat cells (in words)” value is recorded as “complete inactivity”.

B3: TRAIL.R1-2: His-TRAIL (95-281) with 213Trp and 215Asp (Y213W;S215D) (protein)
chain: TSEETISTVQEKQQNISPLVRERGPQRVAAHITGTRGRSNTLSSPNSKNEKALGRKINSWESSRSGHSFLSNLHLRNGELVIHEKGFYYIYSQTYFRFQEEIKENTKNDKQMVQYIYKWTDYPDPILLMKSARNSCWSKDAEYGLYSIYQGGIFELKENDRIFVSVTNEHLIDMDHEASFFGAFLVG
As for B3, the “receptor selectivity” value with TRAIL-R1 (DR4) is reported as “neither specific for TRAIL-R1 nor R2; also recorded: did not show any differential effects”. Also, in the assay with Ramos cells, the “% PS+ cells, Ramos” value is on record as 42.2 ± 3.1% and the “ability … in Ramos cells (in words)” value is “very similar activity to wt TRAIL”. For the same molecule, in the assay on Jurkat cells, the “% PS+ cells, Jurkat” value is reported as 46.6 ± 3.1% and the “ability … in Jurkat cells (in words)” value is “very similar activity to wt TRAIL”.

B4: TRAIL N199V: Asn199Val single mutant of His-TRAIL (protein)
chain: TSEETISTVQEKQQNISPLVRERGPQRVAAHITGTRGRSNTLSSPNSKNEKALGRKINSWESSRSGHSFLSNLHLRNGELVIHEKGFYYIYSQTYFRFQEEIKEVTKNDKQMVQYIYKYTSYPDPILLMKSARNSCWSKDAEYGLYSIYQGGIFELKENDRIFVSVTNEHLIDMDHEASFFGAFLVG
For the molecule B4, the “receptor selectivity” value in the assay with TRAIL-R1 (DR4) is on record as “TRAIL-R1 selective”.

B5: TRAIL R191L: Arg191Leu single mutant of His-TRAIL (protein)
chain: TSEETISTVQEKQQNISPLVRERGPQRVAAHITGTRGRSNTLSSPNSKNEKALGRKINSWESSRSGHSFLSNLHLRNGELVIHEKGFYYIYSQTYFLFQEEIKENTKNDKQMVQYIYKYTSYPDPILLMKSARNSCWSKDAEYGLYSIYQGGIFELKENDRIFVSVTNEHLIDMDHEASFFGAFLVG
Consider B5, for which the “receptor selectivity” value in the assay with TRAIL-R1 (DR4) is “TRAIL-R1 selective”.

B6: TRAIL.R1-1: His-TRAIL (95-281) with single substitution Tyr189Ala (protein)
chain: TSEETISTVQEKQQNISPLVRERGPQRVAAHITGTRGRSNTLSSPNSKNEKALGRKINSWESSRSGHSFLSNLHLRNGELVIHEKGFYYIYSQTAFRFQEEIKENTKNDKQMVQYIYKYTSYPDPILLMKSARNSCWSKDAEYGLYSIYQGGIFELKENDRIFVSVTNEHLIDMDHEASFFGAFLVG
In the case of B6, in the assay on Ramos cells, the “% PS+ cells, Ramos” value amounted to 30.6 ± 2.9% and the “ability … in Ramos cells (in words)” value was “decreased ability to induce apoptosis”. For the same molecule, in the assay with Jurkat cells, the “% PS+ cells, Jurkat” value is 24.9 ± 2.2% and the “ability … in Jurkat cells (in words)” value was “decreased ability to induce apoptosis”.
